Measurements published in patent publication US20230406885A1, “CYCLIC PEPTIDES FOR TRAPPING INTERLEUKIN-1 BETA” (MERCK SHARP & DOHME LLC, priority 2022, published 2023).
*1 amine or outer side, *2 acyl side, *3 side chain or, on linkers, in order; H or OH if unused. [ ]: non-standard residue; d: D form. TyrEtNAc = L-tyrosine O-ethyl acetamide, (S)-3-(4-(2-acetamidoethoxy)phenyl)-2-aminopropanoic acid, CC(=O)NCCOc1ccc(C[C@H](N[*:1])C(=O)[*:2])cc1; 3AzaPhe4AcPip = (S)-3-(6-(4-acetylpiperazin-1-yl)pyridin-3-yl)-2-aminopropanoic acid, CC(=O)N1CCN(c2ccc(C[C@H](N[*:1])C(=O)[*:2])cn2)CC1; 3Pal4Ph4CO2H = (S)-4-(5-(2-amino-2-carboxyethyl)pyridin-2-yl)benzoic acid, O=C([C@H](Cc1ccc(-c2ccc(C(=O)[*:3])cc2)nc1)N[*:1])[*:2]; hF3CF3 = (S)-2-amino-4-(3-(trifluoromethyl)phenyl)butanoic acid, O=C([C@H](CCc1cccc(C(F)(F)F)c1)N[*:1])[*:2]; hF2CF3 = (S)-2-amino-4-(2-(trifluoromethyl)phenyl)butanoic acid, O=C([C@H](CCc1ccccc1C(F)(F)F)N[*:1])[*:2]; Pro(trans-4-NH2) = O=C([C@@H]1C[C@@H](N[*:3])CN1[*:1])[*:2]; Bip(4'-COOH) = N[C@@H](Cc1ccc(-c2ccc(C(=O)O)cc2)cc1)C(=O)O; 1Nal(3S-Me) = C[C@@H](c1cccc2ccccc12)[C@H](N)C(=O)O; hPhe(4-CF3) = N[C@@H](CCc1ccc(C(F)(F)F)cc1)C(=O)O; Phe(4-COOH) = N[C@@H](Cc1ccc(C(=O)O)cc1)C(=O)O; h3Pal(5-CN) = N#Cc1cncc(CC[C@H](N)C(=O)O)c1; Ala(4-THP) = N[C@@H](CC1CCOCC1)C(=O)O; hTyr = N[C@@H](CCc1ccc(O)cc1)C(=O)O; 4Pal = N[C@@H](Cc1ccncc1)C(=O)O; dDab = NCC[C@@H](N)C(=O)O; dNMeA = CN[C@H](C)C(=O)O; Dab = NCC[C@H](N)C(=O)O; Dap = NC[C@H](N)C(=O)O

B1: SEQ ID NO: 103 (peptide)
peptide: cyclo([TyrEtNAc]W[Phe(4-COOH)]G[Pro(trans-4-NH2)][1Nal(3S-Me)]D[dNMeA]G[Bip(4'-COOH)][4Pal]S[dA][hF2CF3])
SMILES: CC(=O)NCCOc1ccc(C[C@@H]2NC(=O)[C@H](CCc3ccccc3C(F)(F)F)NC(=O)[C@@H](C)NC(=O)[C@H](CO)NC(=O)[C@H](Cc3ccncc3)NC(=O)[C@H](Cc3ccc(-c4ccc(C(=O)O)cc4)cc3)NC(=O)CNC(=O)[C@@H](C)N(C)C(=O)[C@H](CC(=O)O)NC(=O)[C@H]([C@@H](C)c3cccc4ccccc34)NC(=O)[C@@H]3C[C@@H](N)CN3C(=O)CNC(=O)[C@H](Cc3ccc(C(=O)O)cc3)NC(=O)[C@H](Cc3c[nH]c4ccccc34)NC2=O)cc1
B2: SEQ ID NO: 104 (peptide)
peptide: cyclo([TyrEtNAc]W[Phe(4-COOH)]G[Pro(trans-4-NH2)][1Nal(3S-Me)]D[dNMeA]G[Bip(4'-COOH)][4Pal]S[dA][hF3CF3])
SMILES: CC(=O)NCCOc1ccc(C[C@@H]2NC(=O)[C@H](CCc3cccc(C(F)(F)F)c3)NC(=O)[C@@H](C)NC(=O)[C@H](CO)NC(=O)[C@H](Cc3ccncc3)NC(=O)[C@H](Cc3ccc(-c4ccc(C(=O)O)cc4)cc3)NC(=O)CNC(=O)[C@@H](C)N(C)C(=O)[C@H](CC(=O)O)NC(=O)[C@H]([C@@H](C)c3cccc4ccccc34)NC(=O)[C@@H]3C[C@@H](N)CN3C(=O)CNC(=O)[C@H](Cc3ccc(C(=O)O)cc3)NC(=O)[C@H](Cc3c[nH]c4ccccc34)NC2=O)cc1
B3: SEQ ID NO: 102 (peptide)
peptide: cyclo([TyrEtNAc]W[Phe(4-COOH)]G[Pro(trans-4-NH2)][1Nal(3S-Me)]D[dNMeA]G[Bip(4'-COOH)][4Pal]G[dDab][h3Pal(5-CN)])
SMILES: CC(=O)NCCOc1ccc(C[C@@H]2NC(=O)[C@H](CCc3cncc(C#N)c3)NC(=O)[C@@H](CCN)NC(=O)CNC(=O)[C@H](Cc3ccncc3)NC(=O)[C@H](Cc3ccc(-c4ccc(C(=O)O)cc4)cc3)NC(=O)CNC(=O)[C@@H](C)N(C)C(=O)[C@H](CC(=O)O)NC(=O)[C@H]([C@@H](C)c3cccc4ccccc34)NC(=O)[C@@H]3C[C@@H](N)CN3C(=O)CNC(=O)[C@H](Cc3ccc(C(=O)O)cc3)NC(=O)[C@H](Cc3c[nH]c4ccccc34)NC2=O)cc1
B4: SEQ ID NO: 1 (peptide)
peptide: cyclo([3AzaPhe4AcPip]W[Phe(4-COOH)]G[Pro(trans-4-NH2)][1Nal(3S-Me)]D[dNMeA]G[Bip(4'-COOH)][4Pal][Dap][dA][h3Pal(5-CN)])
SMILES: CC(=O)N1CCN(c2ccc(C[C@@H]3NC(=O)[C@H](CCc4cncc(C#N)c4)NC(=O)[C@@H](C)NC(=O)[C@H](CN)NC(=O)[C@H](Cc4ccncc4)NC(=O)[C@H](Cc4ccc(-c5ccc(C(=O)O)cc5)cc4)NC(=O)CNC(=O)[C@@H](C)N(C)C(=O)[C@H](CC(=O)O)NC(=O)[C@H]([C@@H](C)c4cccc5ccccc45)NC(=O)[C@@H]4C[C@@H](N)CN4C(=O)CNC(=O)[C@H](Cc4ccc(C(=O)O)cc4)NC(=O)[C@H](Cc4c[nH]c5ccccc45)NC3=O)cn2)CC1
B5: SEQ ID NO: 105 (peptide)
peptide: cyclo([TyrEtNAc]W[Phe(4-COOH)]G[Pro(trans-4-NH2)][1Nal(3S-Me)]D[dNMeA]G[Bip(4'-COOH)][4Pal]S[dA][hPhe(4-CF3)])
SMILES: CC(=O)NCCOc1ccc(C[C@@H]2NC(=O)[C@H](CCc3ccc(C(F)(F)F)cc3)NC(=O)[C@@H](C)NC(=O)[C@H](CO)NC(=O)[C@H](Cc3ccncc3)NC(=O)[C@H](Cc3ccc(-c4ccc(C(=O)O)cc4)cc3)NC(=O)CNC(=O)[C@@H](C)N(C)C(=O)[C@H](CC(=O)O)NC(=O)[C@H]([C@@H](C)c3cccc4ccccc34)NC(=O)[C@@H]3C[C@@H](N)CN3C(=O)CNC(=O)[C@H](Cc3ccc(C(=O)O)cc3)NC(=O)[C@H](Cc3c[nH]c4ccccc34)NC2=O)cc1
B6: SEQ ID NO: 101 (peptide)
peptide: cyclo([TyrEtNAc]W[Phe(4-COOH)]G[Pro(trans-4-NH2)][1Nal(3S-Me)]D[dNMeA]G[Bip(4'-COOH)][4Pal][Dab][dA][hTyr])
SMILES: CC(=O)NCCOc1ccc(C[C@@H]2NC(=O)[C@H](CCc3ccc(O)cc3)NC(=O)[C@@H](C)NC(=O)[C@H](CCN)NC(=O)[C@H](Cc3ccncc3)NC(=O)[C@H](Cc3ccc(-c4ccc(C(=O)O)cc4)cc3)NC(=O)CNC(=O)[C@@H](C)N(C)C(=O)[C@H](CC(=O)O)NC(=O)[C@H]([C@@H](C)c3cccc4ccccc34)NC(=O)[C@@H]3C[C@@H](N)CN3C(=O)CNC(=O)[C@H](Cc3ccc(C(=O)O)cc3)NC(=O)[C@H](Cc3c[nH]c4ccccc34)NC2=O)cc1
B7: SEQ ID NO: 100 (peptide)
peptide: cyclo([TyrEtNAc]W[Phe(4-COOH)]G[Pro(trans-4-NH2)][1Nal(3S-Me)]D[dNMeA]G[Bip(4'-COOH)][4Pal][Dab][dA][hPhe(4-CF3)])
SMILES: CC(=O)NCCOc1ccc(C[C@@H]2NC(=O)[C@H](CCc3ccc(C(F)(F)F)cc3)NC(=O)[C@@H](C)NC(=O)[C@H](CCN)NC(=O)[C@H](Cc3ccncc3)NC(=O)[C@H](Cc3ccc(-c4ccc(C(=O)O)cc4)cc3)NC(=O)CNC(=O)[C@@H](C)N(C)C(=O)[C@H](CC(=O)O)NC(=O)[C@H]([C@@H](C)c3cccc4ccccc34)NC(=O)[C@@H]3C[C@@H](N)CN3C(=O)CNC(=O)[C@H](Cc3ccc(C(=O)O)cc3)NC(=O)[C@H](Cc3c[nH]c4ccccc34)NC2=O)cc1
B8: SEQ ID NO: 10 (peptide)
peptide: cyclo([3Pal4Ph4CO2H]W[Phe(4-COOH)]G[Pro(trans-4-NH2)][1Nal(3S-Me)]D[dNMeA]G[3Pal4Ph4CO2H]W[Dap][dA][hTyr])
SMILES: C[C@@H]1C(=O)NCC(=O)N[C@@H](Cc2ccc(-c3ccc(C(=O)O)cc3)nc2)C(=O)N[C@@H](Cc2c[nH]c3ccccc23)C(=O)N[C@@H](CN)C(=O)N[C@H](C)C(=O)N[C@@H](CCc2ccc(O)cc2)C(=O)N[C@@H](Cc2ccc(-c3ccc(C(=O)O)cc3)nc2)C(=O)N[C@@H](Cc2c[nH]c3ccccc23)C(=O)N[C@@H](Cc2ccc(C(=O)O)cc2)C(=O)NCC(=O)N2C[C@H](N)C[C@H]2C(=O)N[C@@H]([C@@H](C)c2cccc3ccccc23)C(=O)N[C@@H](CC(=O)O)C(=O)N1C
B9: SEQ ID NO: 106 (peptide)
peptide: cyclo([TyrEtNAc]W[Phe(4-COOH)]G[Pro(trans-4-NH2)][1Nal(3S-Me)]D[dNMeA]G[Bip(4'-COOH)][Ala(4-THP)]G[dDab][h3Pal(5-CN)])
SMILES: CC(=O)NCCOc1ccc(C[C@@H]2NC(=O)[C@H](CCc3cncc(C#N)c3)NC(=O)[C@@H](CCN)NC(=O)CNC(=O)[C@H](CC3CCOCC3)NC(=O)[C@H](Cc3ccc(-c4ccc(C(=O)O)cc4)cc3)NC(=O)CNC(=O)[C@@H](C)N(C)C(=O)[C@H](CC(=O)O)NC(=O)[C@H]([C@@H](C)c3cccc4ccccc34)NC(=O)[C@@H]3C[C@@H](N)CN3C(=O)CNC(=O)[C@H](Cc3ccc(C(=O)O)cc3)NC(=O)[C@H](Cc3c[nH]c4ccccc34)NC2=O)cc1

These binders were tested against Recombinant human IL-1β (BioLegend 579404) (human, UniProt P01584 117-269) (assay: cell-based or functional assay).

| Binder | MRC5 IC50 [pM] |
| --- | --- |
| B1 | 66 |
| B2 | 41 |
| B3 | 42.1 |
| B4 | 36.5 |
| B5 | 91 |
| B6 | 247 |
| B7 | 274 |
| B8 | 256 |
| B9 | 26.3 |
